Laboratory results from article PMC8136874, “The entry reaction of the plant shikimate pathway is subjected to highly complex metabolite-mediated regulation” (The Plant Cell, 2021).

Experiments:
[1] = tested on: O=C[C@H](O)[C@H](O)COP(=O)(O)O; assay: DHS enzymatic activity assay with recombinant AthDHS3; assay type: biochemical, Arabidopsis thaliana; conditions: other: various concentrations of the substrate; means ± SEM, n = 3; pH 7.4
Experimental: Unless otherwise noted, DHS enzymatic activity was monitored as previously described ([Liu et al., 2008]), with several optimizations for high-throughput assays with eight-strip PCR tubes and a thermal cycler. The enzyme solution (7.7 µL) containing 50 mM HEPES (pH 7.4) was preincubated with an effector molecule(s) at room temperature for 10 min. For assays using recombinant protein and enzyme fraction isolated from plant leaves, 0.01–0.05 µg and approximately 50 µg of proteins were used, respectively. After adding 0.5 µL of 0.1 M DTT, the samples were further incubated at room temperature for 15 min. […] The enzyme reaction was started by adding 6.8 µL of the substrate solution, then incubated at 37°C for 20 min, and terminated by adding 30 µL of 0.6 M trichloroacetic acid. After brief centrifugation, 5 µL of 200 mM NaIO4 (sodium meta-periodate) in 9 N H3PO4 was added to oxidize the enzymatic product and incubate at 25°C for 20 min. To stop the oxidation reaction, 20 µL of 0.75 M NaAsO2 (sodium arsenite), which was dissolved in 0.5 M Na2SO4 and 0.05 M H2SO4, was immediately mixed. After 5 min of incubation at room temperature, one-third of the sample solution was transferred to a new tube to be mixed with 50 µL of 40 mM thiobarbituric acid and incubated at 99°C for 15 min in a thermal cycler. Developed pink chromophore was extracted by putting the final solutions with 600 µL of cyclohexanone in eight-strip solvent-resistant plastic tubes, mixing vigorously and centrifuging them at 4,500 × g for 3 min to separate water- and cyclohexanone-based layers. The absorbance of the pink supernatant was read at 549 nm with the microplate reader (Infinite 200 PRO, TECAN, Männedorf, Switzerland) to calculate DAHP production with the molar extinction coefficient at 549 nm (ε = 549 nm) of 4.5 × 10^4/M/cm. […]
For determination of kinetic parameters, the data of enzymatic activities measured in the presence of various concentration of substrates were calculated with the Michaelis–Menten equation in Graphpad Prism 6 (GraphPad Software, San Diego, CA, USA).

C=C(OP(=O)(O)O)C(=O)O = assay: purified protein, by the assay type; conditions: other: various concentrations of the substrate; means ± SEM, n = 3; pH 7.4

Sequence of AthDHS3 (Arabidopsis thaliana) (chain, as listed by the source): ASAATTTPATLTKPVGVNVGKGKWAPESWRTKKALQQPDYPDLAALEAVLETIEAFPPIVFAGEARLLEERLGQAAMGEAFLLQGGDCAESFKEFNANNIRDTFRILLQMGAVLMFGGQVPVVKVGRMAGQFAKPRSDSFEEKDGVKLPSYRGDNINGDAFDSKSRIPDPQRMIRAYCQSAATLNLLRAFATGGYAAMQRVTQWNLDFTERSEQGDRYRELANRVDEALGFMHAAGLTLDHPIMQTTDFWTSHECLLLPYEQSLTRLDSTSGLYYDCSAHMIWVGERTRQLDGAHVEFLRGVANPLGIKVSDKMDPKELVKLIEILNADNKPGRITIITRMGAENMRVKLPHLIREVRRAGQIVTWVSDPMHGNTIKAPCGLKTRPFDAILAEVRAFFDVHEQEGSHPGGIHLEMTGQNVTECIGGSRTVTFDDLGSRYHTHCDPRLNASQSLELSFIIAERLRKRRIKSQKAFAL

AthDHS3 (Arabidopsis thaliana)
Km [1]: 1550 ± 276 µM
kcat [1]: 9.13 ± 0.28 s⁻¹
kcat/Km [1]: 6350 ± 160 M⁻¹ s⁻¹
Km (C=C(OP(=O)(O)O)C(=O)O): 706 ± 124 µM
kcat (C=C(OP(=O)(O)O)C(=O)O): 8.42 s⁻¹
kcat/Km (C=C(OP(=O)(O)O)C(=O)O): 12400 M⁻¹ s⁻¹
